From US9023604 (IBA, dated 2015) come the findings set out here.

Assay [1] concerns the target T1, CD4 cell surface receptor molecule on peripheral blood mononuclear cells (PBMCs) (human, UniProt P01730 26-458).
T1 construct: whole, on cells; also called CD4 receptor molecule
The experiment in a line: flow cytometry, PBMCs, live CD3+ T cells; column 'Fab multimer -> D-biotin -> Fab multimer': second Fab-multimer staining after D-biotin and washing. From the text: (§1) Peripheral Blood Mononuclear Cells (PBMCs) were stained with anti-CD4 Fab fragments (receptor binding reagent) fused to a sequential arrangement of two Strep-tag® sequences (commercially available under the trade name "One-STrEP-tag"; binding partner C) and multimerized on phycoerythrin labeled Strep-Tactin® (Strep-Tactin PE; IBA GmbH, Göttingen, Germany; multimerization reagent comprising at least 2 binding sites Z for the binding partner C) and analyzed either before (second column) or after treatment with D-biotin (third column). Remaining Fab-monomers (i.e. Fab fragments used as receptor binding reagent) on the target cell surface were then detected after subsequent washing steps to remove […] using Strep-Tactin PE alone (without bound Fab fragments) (fourth column). Fab-multimer staining after the reversible staining described above of the cells was performed again (fifth column) to control completion of biotin removal which otherwise would have hampered the staining of remaining Fab-monomers with Strep-Tactin PE alone (without bound Fab fragments) as shown in the fourth column and which thus would have led to a wrong conclusion of the experiment. Alternatively, cells were incubated with monomeric Fab-fragments, washed and subsequently analyzed after staining with Strep-Tactin® PE (first, i.e. left-most column). Live CD3^+ T cells are shown. Numbers in the dot plots indicate the percentage of cells within gates.
(§2) For staining and dissociation experiments, 5 ×10^6 PBMCs were incubated with the respective anti-CD4 Fab-multimer-Strep-Tactin® PE complexes or with the corresponding Fab-monomers (the latter not complexed with Strep-Tactin® PE).
On the technique in general: In flow cytometry, cells or beads pass a laser one at a time.

In assay [2] the target is T1, CD4 cell surface receptor molecule on …. Put plainly: flow cytometry, PBMCs, live CD3+ T cells; column 'Fab multimer': Fab multimerized on Strep-Tactin PE. The method, then:
(§3) Remaining Fab-monomers (i.e. Fab fragments used as receptor binding reagent) on the target cell surface were then detected after subsequent washing steps to remove […] using Strep-Tactin PE alone (without bound Fab fragments) (fourth column). Fab-multimer staining after the reversible staining described above of the cells was performed again (fifth column) to control completion of biotin removal which otherwise would have hampered the staining of remaining Fab-monomers with Strep-Tactin PE alone (without bound Fab fragments) as shown in the fourth column and which thus would have led to a wrong conclusion of the experiment. Alternatively, cells were incubated with monomeric Fab-fragments, washed and subsequently analyzed after staining with Strep-Tactin® PE (first, i.e. left-most column). Live CD3^+ T cells are shown. Numbers in the dot plots indicate the percentage of cells within gates.
(§4) For staining of a CD4 receptor molecule specific target cell population in a mixture of cells, Strep-Tactin® labeled with phycoerythrine as a fluorescent label (IBA GmbH, Göttingen, Germany) was used as multimerization reagent together with the monomeric CD4 binding Fab-One-STrEP fragment of the variants of the antibody 13B8.2 (that served as receptor binding reagent) as described below. For FACS analysis 5×10^6 PBMCs were incubated with Fab multimers consisting of 0.2 μg Fab-fragment (comprising binding site B) equipped with the One-STrEP-tag (binding partner C) as receptor binding reagent and 0.75 μg Strep-Tactin® PE (IBA GmbH, Göttingen, Germany) as multimerization reagent using the protocol below. In addition, after FACS separation, the multivalent complexes were disrupted in a portion of each of the stained cells by addition of biotin as described below. Control antibody stainings were performed by concomitant application of the respective antibody: anti-CD4 (OKT4) (from eBiosciences, San Diego, Calif., USA). After the staining procedure of the present invention, cells were subsequently stained with propidium iodide for live/dead discrimination.
Protocol for Staining of 5×10^6 Cells with Receptor Binding Reagent and Multimerization Reagent 1. 0.75 μg Strep-Tactin PE were incubated with 0.2 μg monomeric CD4 binding Fab-One-STrEP fragment for 30 minutes at 4° C. in the dark. 2.

Assay [3] has the same target. The experiment in a line: flow cytometry, PBMCs, live CD3+ T cells; column 'Fab multimer -> D-biotin -> ST-PE': after D-biotin and washing, remaining Fab monomers detected with Strep-Tactin PE alone.
From the text: as §1
(§5) For staining and dissociation experiments, 5 ×10^6 PBMCs were incubated with the respective anti-CD4 Fab-multimer-Strep-Tactin® PE complexes or with the corresponding Fab-monomers (the latter not complexed with Strep-Tactin® PE). […] After D-biotin-mediated disruption of the multimeric complexes (FIG. 2, third column) and subsequent washing, the cells were probed for residual surface-bound Fab fragments by the addition of Strep-Tactin® PE alone (without bound Fab) (FIG. 2, fourth column).

The target is the same in assay [4]. The experiment in a line: flow cytometry, PBMCs, live CD3+ T cells; column 'Fab multimer -> D-biotin': Fab-multimer staining analysed after treatment with D-biotin. The method, then:
as §3, §4, §2

Assay [5] has the same target. The experiment in a line: flow cytometry, PBMCs, live CD3+ T cells; column 'Fab monomer -> ST-PE': cells incubated with monomeric Fab, washed, then stained with Strep-Tactin PE; y axis CD4 Fab-multimer / Fab-monomer, x axis CD8.
From the text: as §1, §5

B1: 13B8.2 Fab fragment (variable domains of murine anti-CD4 antibody 13B8.2, human CH1 gamma1 and human kappa constant domains), heavy chain fused to One-STrEP-tag (Fab, V domains shown)
VH: QVQLKQSGPGLVQPSQSLSITCTVSGFSLTTFGVHWVRQSPGKGLEWLGVIWRSGITDYNVPFMSRLSITKDNSKSQVFFKLNSLQPDDTAIYYCAKNDPGTGFAYWGQGTLVTVSA
VL: DIQMTQSPASLSASVGETVTFTCRASEMIYSYLAWYQQKQGKSPQLLVHDAKTLAEGVPSRFSGGGSGTQFSLKINTLQPEDFGTYYCQHHYGNPPTFGGGTKLEIKR
notes: Expressed in the E. coli periplasm; Stained as a monomer or multimerized on Strep-Tactin PE; also called CD4 wt (13B8.2); 13B8.2 wildtype (wt) Fab fragment
As to B1, the “percentage of cells within gate” value in assay [1] was found to be 18.8%; in assay [2] it was 23.3%; in assay [3], 16.1%; in assay [4], 0.041%; in assay [5], 20%.

B2: Mutant 13B8.2 Fab fragment with Tyr at position 92 of the light chain mutated to Ala, heavy chain fused to One-STrEP-tag (Fab, V domains shown)
VH: QVQLKQSGPGLVQPSQSLSITCTVSGFSLTTFGVHWVRQSPGKGLEWLGVIWRSGITDYNVPFMSRLSITKDNSKSQVFFKLNSLQPDDTAIYYCAKNDPGTGFAYWGQGTLVTVSA
VL: DIQMTQSPASLSASVGETVTFTCRASEMIYSYLAWYQQKQGKSPQLLVHDAKTLAEGVPSRFSGGGSGTQFSLKINTLQPEDFGTYYCQHHAGNPPTFGGGTKLEIKR
notes: also called CD4 mutant 2 (Y92A); mutant 2
As to B2, the “percentage of cells within gate” value amounted to 18.8% in assay [1]; 14.7% in assay [2]; 0.0017% in assay [3]; 0.034% in assay [4]; 0.0022% in assay [5].

B3: Mutant 13B8.2 Fab fragment with Phe at position 100 of the heavy chain mutated to Ala, heavy chain fused to One-STrEP-tag (Fab, V domains shown)
VH: QVQLKQSGPGLVQPSQSLSITCTVSGFSLTTFGVHWVRQSPGKGLEWLGVIWRSGITDYNVPFMSRLSITKDNSKSQVFFKLNSLQPDDTAIYYCAKNDPGTGAAYWGQGTLVTVSA
VL: DIQMTQSPASLSASVGETVTFTCRASEMIYSYLAWYQQKQGKSPQLLVHDAKTLAEGVPSRFSGGGSGTQFSLKINTLQPEDFGTYYCQHHYGNPPTFGGGTKLEIKR
notes: also called CD4 mutant 1 (F100A); F100K-H
B3: the “percentage of cells within gate” value in assay [1] turned out to be 19.2%; in assay [2], 23%; in assay [3] it was 16.4%; in assay [4], 0.014%; in assay [5], 19.9%.

B4: Mutant 13B8.2 Fab fragment with His at position 91 of the light chain mutated to Ala, heavy chain fused to One-STrEP-tag (Fab, V domains shown)
VH: QVQLKQSGPGLVQPSQSLSITCTVSGFSLTTFGVHWVRQSPGKGLEWLGVIWRSGITDYNVPFMSRLSITKDNSKSQVFFKLNSLQPDDTAIYYCAKNDPGTGFAYWGQGTLVTVSA
VL: DIQMTQSPASLSASVGETVTFTCRASEMIYSYLAWYQQKQGKSPQLLVHDAKTLAEGVPSRFSGGGSGTQFSLKINTLQPEDFGTYYCQHAYGNPPTFGGGTKLEIKR
notes: also called CD4 mutant 4 (H91A); mutant 4
For B4, the “percentage of cells within gate” value was found to be 20% in assay [1]; 23.1% in assay [2]; 0.00284% in assay [3]; 0.017% in assay [4]; 0.0039% in assay [5].

B5: Mutant 13B8.2 Fab fragment with His at position 35 of the heavy chain mutated to Ala, heavy chain fused to One-STrEP-tag (Fab, V domains shown)
VH: QVQLKQSGPGLVQPSQSLSITCTVSGFSLTTFGVAWVRQSPGKGLEWLGVIWRSGITDYNVPFMSRLSITKDNSKSQVFFKLNSLQPDDTAIYYCAKNDPGTGFAYWGQGTLVTVSA
VL: DIQMTQSPASLSASVGETVTFTCRASEMIYSYLAWYQQKQGKSPQLLVHDAKTLAEGVPSRFSGGGSGTQFSLKINTLQPEDFGTYYCQHHYGNPPTFGGGTKLEIKR
notes: also called CD4 mutant 3 (H35A); mutant 3
Take B5: the “percentage of cells within gate” value in assay [1] turned out to be 19.3%; in assay [2] it was 23.4%; in assay [3], 0.019%; in assay [4] it was 0.041%; in assay [5] it was 0.007%.
